Results published in the supplement of paper PMC9170038.

Tested on: MS2 coat protein
Test: apparent KD of MS2 coat protein; designed switch direction (-1 OFF switch, 1 ON switch): 1; higher = weaker reporter binding
Method in brief: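 Transcription of designed RNA switches on Illumina chips was done by stalled E. coli RNA polymerase. SNAP-549-labelled MS2 coat protein was then titrated in doubling steps from 0.7 or 1.5 nM to 3 µM, with steps of 0.8–1.5 h at the lowest and 10–20 min at the highest concentration. The per-design median over clusters of curve-fitted normalised fluorescence is reported as apparent KD.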

[1] = Eterna round: R95, input ligand: FMN 200 uM
[2] = Eterna round: R95, input ligand: microRNA oligo, concentration not stated
[3] = Eterna round: R95, input ligand: none
[4] = input ligand: microRNA oligo, concentration not stated

Sequence	apparent KD of MS2 coat protein [1] [nM]	apparent KD of MS2 coat protein [2] [nM]	apparent KD of MS2 coat protein [3] [nM]	apparent KD of MS2 coat protein (input ligand: FMN 200 uM) [nM]	apparent KD of MS2 coat protein [4] [nM]	apparent KD of MS2 coat protein (input ligand: none) [nM]
GGUCCAGCUUUUGCUGGUCCUUCGCUUGCACAUGAGGAUCACCCAUGUCGUGUACAUGCUUGGUGCCCGUCUUUUUU [Photon Torp-16] (puzzle: Sensor for hsa-mir-208a)	137	44.9	229	–	–	–
GGUCCAUCAUGAGGAUAUGGCACCUUAUUGGUGCCAGAAGGCAUGUAAAUUAUAAUAAACAUGAGGAUCACCCAUGUAUGGACC [Eli NG1ss - 96] (Eterna round: R96, puzzle: Same State NG 1)	–	–	–	439	55.5	137
GGUCCGGCCUGAGCUGGACCGAAGCAUGUACAUGAGGAUCACCCAUGUCAUGUACAGGCUUUUUGCUCGUCUUAUUG [JL-shm-2.13 JL Mod] (puzzle: Sensor for hsa-mir-208a)	705	14.4	683	–	–	–
GGUCCGGCCUGAGCUGGACCGGAGCAUGUACAUGAGGAUCACCCAUGUCAUGUACAGGCUUCUUGCUCGUCUUGUUG [JL-shm-2.16 JL Mod] (Eterna round: R96, puzzle: Sensor for hsa-mir-208a)	–	–	–	282	14.8	130
GGUCCGGCCUGAGCUGGACCGGAGCAUGUACAUGAGGAUCACCCAUGUCAUGUACAGGCUUCUUGCUCGUCUUGUUG [JL-shm-2.16 JL Mod] (puzzle: Sensor for hsa-mir-208a)	314	15	421	–	–	–
GGUGCAAUAAACGCCUACAUGAGGAUCACCCAUGUAUGUAGGCAGGAUAUCGUUUGCAAAGCAAACGAGAAGGGCUAUAGUACC [Mat - Same State NG 3 - JL Mod - D44] (Eterna round: R96, puzzle: Same State NG 3)	–	–	–	56.2	123	161
GGUGCACGGUGACGUGCACGGUAGUGCGUACAUGAGGAUCACCCAUGUCAUGUAGGAGUUACUUGUUCGUCUUGAAC [SENSOR #2] (puzzle: Sensor for hsa-mir-208a)	28.7	22.8	25.4	–	–	–
GGUGGGUUACUACCAACACAUGAGGAUCACCCAUGUUUUGGGAAGGAUAUGGUACCUAUUUGGUACCAGAAGGUCCCGUUGGUG [salish99_SSNG3_r04_705] (Eterna round: R96, puzzle: Same State NG 3)	–	–	–	28.7	25.8	36
GGUUUAGUCGAGUGCCAUUCCACUCGAAAACAUGAGGAUCACCCAUGUUUGGGACAAGCUUUGCUCCUCGUCUUUCC [Inertequ] (puzzle: Sensor for hsa-mir-208a)	259	75.8	371	–	–	–
GUAAGUUCGAUGCUCGUCUCUCCGUACAAACAUGAGGAUCACCCAUGUGAUCGGGAAGUAGCCCGAUCAGUAUGGCC [Teonveenes] (puzzle: Sensor for hsa-mir-208a)	34.8	24.3	38.2	–	–	–
GUAAGUUCGAUGCUCGUCUCUCCGUACAAACAUGAGGAUCACCCAUGUGAUCGGGCAGUAGCCCGAUCAGUAUGGCC [Xearlaxe] (puzzle: Sensor for hsa-mir-208a)	44	22.6	47	–	–	–
GUACAGAUUAUAGGAUAUCACGUCGAUUAGACGUGAGAAGGAUAAUCACACAUGAAUAUUAAUACAUGAGGAUCACCCAUGUAC [SSNG1/17-A2] (Eterna round: R96, puzzle: Same State NG 1)	–	–	–	12.9	12.9	17
GUAGCAUACCGAGGAUAUUCAUAUAAUAAAUAAACAUGAGGAUCACCCAUGUGGCGAAAGCCUUGGGAGAAGGCGGAAUGCUAC [Xeonanis - 20 Mod55] (Eterna round: R96, puzzle: Same State NG 2)	–	–	–	20.7	296	486
GUAGCAUACCGAGGAUAUUCAUAUUACAUGAGGAUCACCCAUGUUAUAGGUCGAUUACGACCUUGGGAGAAGGCGGAAUGCUAC [Xeonanis - 20 Mod32] (Eterna round: R96, puzzle: Same State NG 2)	–	–	–	–	23	–
GUAGCAUACCGAGGAUAUUCAUUAAACAUGAGGAUCACCCAUGUAAAUUAUAGGCGAAAGCCUUGGGAGAAGGCGGAAUGCUAC [Xeonanis - 20 Mod72] (Eterna round: R96, puzzle: Same State NG 2)	–	–	–	11	11.3	19.1
GUAGGACAUGAGGAUCACCCAUGUGGGAGGGAACGAGGAUAUGUGAAAGGAUUGAAGAGGACAGAAGGCGUGGAGG [JR_SS1_Sub026] (puzzle: Same State 1)	–	30.1	–	–	–	–
GUAUAACAUGAGGAUCACCCAUGUCAACAAAGUCGAGGAUAUGGGCAGAGAGGAGAAGAACCAGAAGGCGAAUAUG [Mat - Same State 1 - Mod of UCT - D37] (puzzle: Same State 1)	77.8	59.2	122	–	–	–
GUCCGGCUGCCACAGGAUAUACGUGGAUCGACAUGAGGAUCACCCAUGUAUAUCCUAAUAAUUGCGUAGAAGGGUGGUCAGCCGG [Dionbe] (Eterna round: R96, puzzle: Same State 2)	–	–	–	–	507	–
GUCCGGCUGCCACAGGAUAUACGUGGAUCGACAUGAGGAUCACCCAUGUAUAUCCUAAUAAUUGCGUAGAAGGGUGGUCAGCCGG [Dionbe] (puzzle: Same State 2)	78.3	540	1180	–	–	–
GUGCGGCUGCCACAGGAUAUACGUGGAUCGACAUGAGGAUCACCCAUGUAUAUCCUAAUAAUUGCGUAGAAGGGUGGUCAGCCAG [Iserinqu] (puzzle: Same State 2)	90	332	469	–	–	–
GUGCUCAUGUAAGGAUAUGCAGCCGUUUCGGCUGCAGAAGGUACUAUAAUACAUGAGGAUCACCCAUGUCUCUAUAAUUUGGUG [salish99_SSNG1_r04_903] (Eterna round: R96, puzzle: Same State NG 1)	–	–	–	–	76.5	–
GUGCUCGUGUAAGGAUAUGCAGCCGUUUCGGCUGCAGAAGGUACUAUAAUACAUGAGGAUCACCCAUGUCUCUAUAGUUUGGUG [salish99_SSNG1_r04_905] (Eterna round: R96, puzzle: Same State NG 1)	–	–	–	–	22.3	–
